Experimental data from paper doi:10.1101/2025.11.04.686606.

Target: PcoAA14A_dCTR, disordered C-terminal region alone of PcoAA14A (Pycnoporus coccineus)
Experiment: SEC-MALLS

stoichiometry N: 2
Substance: PcoAA14A_dCTR, disordered C-terminal region alone of PcoAA14A (domain or fragment)
